Read-outs that look alike come from different tables or passages of the source.
Columns and labels:
[1] = molecular target: T1, cardiac troponin I (cTnI) (UniProt P19429 2-210); experiment: direct ELASA
[2] = molecular target: T1, cardiac troponin I (cTnI); experiment: direct ELASA; remark: listed apart in the source

T1 sequence (P19429 2-210): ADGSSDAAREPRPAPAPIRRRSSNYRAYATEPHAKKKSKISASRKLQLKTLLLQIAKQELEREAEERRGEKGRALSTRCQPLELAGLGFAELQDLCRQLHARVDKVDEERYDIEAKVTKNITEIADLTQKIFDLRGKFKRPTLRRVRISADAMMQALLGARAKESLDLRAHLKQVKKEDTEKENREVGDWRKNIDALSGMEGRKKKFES

| Binder | binding result [1] | binding result [2] |
| --- | --- | --- |
| CGCATGCCAAACGTTGCCTCATAGTTCCCTCCCCGTGTCC (ssDNA) [Tro6 (5'-thiol C6, HRP conjugate)] | binds |  |
| CGTGCAGTACGCCAACCTTTCTCATGCGCTGCCCCTCTTA (ssDNA) [Tro4 (5'-biotin)] |  | binds |

From PMC12321301
